# Test results taken from US5445951A, “Regioselective enzymatic deacylation of sucrose esters in anhydrous organic media” (priority 1993, dated 1995).
# B1: lipase type II: Sigma, porcine pancreas, 50 U/mg (protein, UniProt P00591 1-450, looked up)
# Pancreatic triacylglycerol …: SEVCFPRLGCFSDDAPWAGIVQRPLKILPWSPKDVDTRFLLYTNQNQNNYQELVADPSTITNSNFRMDRKTRFIIHGFIDKGEEDWLSNICKNLFKVESVNCICVDWKGGSRTGYTQASQNIRIVGAEVAYFVEVLKSSLGYSPSNVHVIGHSLGSHAAGEAGRRTNGTIERITGLDPAEPCFQGTPELVRLDPSDAKFVDVIHTDAAPIIPNLGFGMSQTVGHLDFFPNGGKQMPGCQKNILSQIVDIDGIWEGTRDFVACNHLRSYKYYADSILNPDGFAGFPCDSYNVFTANKCFPCPSEGCPQMGHYADRFPGKTNGVSQVFYLNTGDASNFARWRYKVSVTLSGKKVTGHILVSLFGNEGNSRQYEIYKGTLQPDNTHSDEFDSDVEVGDLQKVKFIWYNNNVINPTLPRVGASKITVERNDGKVYDFCSQETVREEVLLTLNPC
# B2: papain: Sigma, Papaya latex (protein, UniProt P00784 134-345, looked up)
# Papain: IPEYVDWRQKGAVTPVKNQGSCGSCWAFSAVVTIEGIIKIRTGNLNEYSEQELLDCDRRSYGCNGGYPWSALQLVAQYGIHYRNTYPYEGVQRYCRSREKGPYAAKTDGVRQVQPYNEGALLYSIANQPVSVVLEAAGKDFQLYRGGIFVGPCGNKVDHAVAAVGYGPNYILIKNSWGTGWGENGYIRIKRGTGNSYGVCGLYTSSFYPVKN
# How the values were obtained:
# lipase AY 30 = test: Effect of the solvent on lipase AY 30 SOA deacetylation; type: biochemical, Candida cylindracea; conditions: lipase AY 30, solvent as labelled, 24 hrs
# [1] = type: physicochemical; conditions: estimated from known log P values / increments
# From the text: ^a) log P is a measurement of the solvent hydrophobicity (logarithm o
# the solvent partition coefficient between noctanol and water [Rekker, "Th
# Hydrophobic Fragmental Constant", Elsevier, Amsterdam (1977)]). The log P
# values from this table are from Laane et al. , Biotechnol Bioeng. 30,81
# [2] = Solubility in hydrophobic solvents; type: physicochemical; conditions: more hydrophobic solvents, e.g., hexane, cyclohexane, heptane, octane
# [3] = SOP hydrolytic enzyme screen in heptane with n-butanol; type: biochemical; conditions: 24 hrs; for SheptaP's ([…]): HPLC peak […]; for SOP: residual SOP; on SheptaP's ([…]): HPLC peak 8.2 min
# Method: To extend the scope and utility of this study, sucrose octapropionate was synthesized and used as substrate in enzyme catalyzed deacylation reactions. […] The hydrolytic enzymes were screened for their capability to deacylate SOP in heptane with n-butanol as the nucleophile. After 24 hrs incubation aliquots were analyzed by HPLC.
# Enzyme screening for SOP deacylation in heptane. A scintillation vial was charged successively with 100 mg of powdered enzyme as received or prepared as described and 1.0 ml of 20 mM sucrose octapropionate (SOP) and 200 mM butanol dissolved in an organic solvent. Following a 5 sec sonication, the vial was incubated in a controlled-temperature shaker at 45° C. and 300 RPM for 24 hrs. A 200 μl aliquot of the reaction mixture was withdrawn and centrifuged. The supernatant was collected and 10 μl of this solution was analyzed by HPLC.
# [4] = as obtained from supplier; cited from earlier work
# [5] = SOA deacetylation catalyzed by pH precipitated enzymes in diisopropyl ether; type: biochemical; conditions: for buffer pH (optimal pH for enzyme activity in anhydrous solvents): SOA deacetylation; for SheptaAs / ShexaAs / SOA: diisopropyl ether, 24 hrs incubation, HPLC; for SOA: residual SOA
# Method: A wide variety of hydrolytic enzymes were initially screened for their ability to regioselectively deacetylate SOA in organic solvents. […] Enzyme activity is dependent upon the presence of a minimum shell of water surrounding the enzyme. […] It is known that one way to improve the catalytic power of an enzyme in organic solvent is to use it in the right ionic state.
# (§1) The pH of commercial powdered enzymes was adjusted in the following way: The enzyme (3 g) was dissolved in 25 ml of an appropriate buffer and the pH adjusted with dilute NaOH or citric/phosphoric acid solution. Cold acetone (37.5 ml at -20° C.) was added and the precipitate collected on a medium porosity glass funnel and dried overnight at 2 millitorr. The protein pellet was ground to a fine powder and equilibrated at 4° C. over saturated aqueous potassium carbonate (RH: 43%) for 24 hrs.
# (§2) Enzyme and Solvent Screening for SOA Deacetylation. A scintillation vial was charged successively with 100 mg of powdered enzyme as received or prepared as described and 1.0 ml of 20 mM sucrose octaacetate (SOA) dissolved in an organic solvent. Following a 5 sec sonication, the vial was incubated in a controlled-temperature shaker at 45° C. and 300 RPM for 24 hrs. A 200 μl aliquot of the reaction mixture was withdrawn and centrifuged. The supernatant was collected and evaporated under a stream of N2. The residue was reconstituted in 200 μl of acetonitrile and 10 μl of this solution was analyzed by HPLC.
# [6] = Activity and regioselectivity of enzymes for SOA deacetylation; type: biochemical; conditions: for buffer pH (optimal pH for enzyme activity in anhydrous diisopropyl ether): SOA deacetylation; for % conv: total of all sucrose hepta and hexa acetates; for regioselectivity of SOA deacetylation: in words
# Method: An important aspect of this work was to assign, unequivocally, the structures of all sucrose hepta-, hexa-, and pentaacetates obtained by enzymatic deacetylation of SOA. These structures were assigned by perdeuterioacetylation followed by ^1 H-NMR, as described by Rathbone E. B., Carbohydr. Res., 205,402 (1990).
# HPLC analysis. Routine screening was performed on a Supelcosil LC-18-DB column (150×4.6 mm, 5μ) using an isocratic mode with either acetonitrile/water (35/65) or acetonitrile/water (60/40) as eluant for reactions involving sucrose octaacetate (SOA) and sucrose octapropionate (SOP), respectively. All flow rates were 1.0 ml/min with UV detection at 220 nm. To identify all products from SOA deacetylation, a gradient mode was employed using 15% to 35% acetonitrile in water over 40 minutes followed by 35/65 acetonitrile/water isocratic elution for 20 minutes. To screen nucleophiles for SOA deacetylation, an isocratic elution mode was employed using 30/70 acetonitrile/water for 16 min followed by a gradient from 30% to 35% acetonitrile in water over 5 min and finally isocratic elution using 35/65 acetonitrile/water for 16 min. To assess the enzyme regiochemistry for SOA deacetylation, an isocratic elution mode was employed using 25/75 acetonitrile/water for 55 minutes.
# Identification of the Sucrose Hepta, Hexa or Pentaacetates Obtained Enzymatically. The fraction of sucrose hepta, hexa or pentaacetates were identified as follows. The compound(s) of interest was dissolved in 1.0 ml 99.0 atom % pyridine--d5 followed by addition of 1.0 ml 99 +atom % acetic anhydride--d6. The resulting solution was shaken at 45° C. and 300 RPM for several hours until TLC analysis (silica gel, 9/1 CHCl3 /MeOH) indicated complete reaction. The reaction mixture was evaporated in vacuo and the residue washed several times with water to remove residual pyridine-d5 and/or acetic anhydride-d6. The resulting oily solid was dissolved in 5 ml off chloroform and passed through Whatmann 12.5 cm 1 PS silicone treated filter paper to remove water.
# as §1, §2
# [7] = SOP deacylation catalyzed by pH precipitated enzymes in diisopropyl ether; type: biochemical; conditions: for buffer pH (optimal pH for enzyme activity in anhydrous media): SOP deacylation; for SOP / SheptaP's / ShexaP's: diisopropyl ether, 24 hrs
# Method: To increase the number and/or activities of enzymes active with SOP, pH precipitation experiments, as described for SOA, were undertaken.
# as §1
# [8] = HPLC sucrose heptaacetate peak height
molecule,measurement,setting,value
"CC1(C)CCC(C)(C)O1 [2,2,5,5-tetramethyl THF, 2,2,5,5-tetramethyltetrahydrofuran]",SOA,lipase AY 30,68.4%
same,SheptaA,lipase AY 30,31.6%
same,log P,[1],2.5
"CC1CCC(C)O1 (stereo not drawn) [2,5-dimethyl THF, 2,5-dimethyltetrahydrofuran]",SOA,lipase AY 30,96.2%
same,SheptaA,lipase AY 30,3.8%
same,ShexaA,lipase AY 30,0%
same,log P,[1],1.5
"CC1CCCO1 (stereo not drawn) [2-methyl THF, 2-methyltetrahydrofuran]",SOA,lipase AY 30,96.2%
same,SheptaA,lipase AY 30,3.8%
same,ShexaA,lipase AY 30,0%
same,log P,[1],1.0
"CCC(=O)OC[C@H]1O[C@@](COC(=O)CC)(O[C@H]2O[C@H](COC(=O)CC)[C@@H](OC(=O)CC)[C@H](OC(=O)CC)[C@H]2OC(=O)CC)[C@@H](OC(=O)CC)[C@@H]1OC(=O)CC [SOP, sucrose octapropionate]",solubility versus SOA,[2],significantly enhanced solubility
CCOCCOCC [ethylene glycol diethyl ether],SOA,lipase AY 30,85.0%
same,SheptaA,lipase AY 30,13.5%
same,ShexaA,lipase AY 30,1.5%
same,log P,[1],0.87
bromelain,SheptaP's (9.6 min),[3]; HPLC peak 9.6 min,0.3
same,SheptaP's ([…]),[3],0.7
same,SOP,[3],99.0%
same,enzyme activity,[4],22.9 U/mg
chymotrypsin,buffer pH (optimal pH for enzyme activity in anhydrous solvents),[5],8.0
same,SheptaAs,[5],2.5%
same,ShexaAs,[5],0%
same,SOA,[5],97.5%
same,buffer pH (optimal pH for enzyme activity in anhydrous diisopropyl ether),[6],8.0
same,% conv,[6],< 6%
same,SheptaP's ([…]),[3],3.9
same,SOP,[3],96.1%
same,buffer pH (optimal pH for enzyme activity in anhydrous media),[7],8.0
same,SOP,[7],98.2%
same,SheptaP's,[7],1.8%
same,ShexaP's,[7],0%
same,enzyme activity,[4],48 U/mg
B1,buffer pH (optimal pH for enzyme activity in anhydrous solvents),[5],7.0
same,SheptaAs,[5],13.5%
same,ShexaAs,[5],0.6%
same,SOA,[5],85.9%
same,regiochemistry 4'OH,[6]; [8],1
same,regiochemistry 6'OH,[6]; [8],1
same,buffer pH (optimal pH for enzyme activity in anhydrous diisopropyl ether),[6],7.0
same,regioselectivity of SOA deacetylation,[6],the primary deacetylation product is the 4'- OH heptaacetate
same,regioselectivity of SOA deacetylation,[6]; listed as Porcine pancreatic lipase,at the 4' position
same,% conv,[6],14.1%
same,SheptaP's (9.2 min),[3]; HPLC peak 9.2 min,0.2
same,SheptaP's ([…]),[3],1.7
same,BuOpropionate,"[3]; butyl propionate formed, peak area",59 cAUs
same,SOP,[3],98.1%
same,buffer pH (optimal pH for enzyme activity in anhydrous media),[7],7.0
same,SOP,[7],96.5%
same,SheptaP's,[7],3.5%
same,ShexaP's,[7],0%
same,capability of deacetylating SOP,"[7]; pH precipitated, in words",capable of deacetylating SOP
same,enzyme activity,[4],50 U/mg
B2,SheptaP's (7.0 min),[3]; HPLC peak 7.0 min,0.3
same,SheptaP's ([…]),[3],0.9
same,SOP,[3],98.8%
same,enzyme activity,[4],2.8 U/mg
